Target: K12-acetylated histone H4 tail peptide (residues 1–20), biotinylated at the C-terminus (UniProt P62805)
Test: SPR

second bromodomain of human BRD2 (BRD2-BD2: residues 348–455) (from UniProt P25440 348-455) (domain or fragment)
Kd: 300 µM

— publication PMC4158924
